Article doi:10.1101/2022.02.25.482027 (bioRxiv, 2022)

Tests used:
Experiment in all cases: co-sedimentation
FtsA(E14R) = target: T1, FtsA(E14R) (E. coli, UniProt P0ABH0 1-420, E14R)
T1 sequence: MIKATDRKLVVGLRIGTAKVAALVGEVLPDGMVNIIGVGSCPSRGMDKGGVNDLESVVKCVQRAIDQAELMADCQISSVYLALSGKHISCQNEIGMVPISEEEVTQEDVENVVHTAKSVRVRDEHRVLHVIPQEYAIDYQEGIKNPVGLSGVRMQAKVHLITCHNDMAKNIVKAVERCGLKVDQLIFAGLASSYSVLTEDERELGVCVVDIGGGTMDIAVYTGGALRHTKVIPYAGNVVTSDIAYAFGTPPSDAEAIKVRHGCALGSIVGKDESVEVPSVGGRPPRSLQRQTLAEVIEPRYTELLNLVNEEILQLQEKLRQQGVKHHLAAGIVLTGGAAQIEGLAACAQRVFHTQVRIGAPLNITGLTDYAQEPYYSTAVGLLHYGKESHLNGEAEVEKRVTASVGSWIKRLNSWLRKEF

FtsA(S84L) = target: T2, FtsA(S84L) (E. coli, UniProt P0ABH0 1-420, S84L)
T2 sequence: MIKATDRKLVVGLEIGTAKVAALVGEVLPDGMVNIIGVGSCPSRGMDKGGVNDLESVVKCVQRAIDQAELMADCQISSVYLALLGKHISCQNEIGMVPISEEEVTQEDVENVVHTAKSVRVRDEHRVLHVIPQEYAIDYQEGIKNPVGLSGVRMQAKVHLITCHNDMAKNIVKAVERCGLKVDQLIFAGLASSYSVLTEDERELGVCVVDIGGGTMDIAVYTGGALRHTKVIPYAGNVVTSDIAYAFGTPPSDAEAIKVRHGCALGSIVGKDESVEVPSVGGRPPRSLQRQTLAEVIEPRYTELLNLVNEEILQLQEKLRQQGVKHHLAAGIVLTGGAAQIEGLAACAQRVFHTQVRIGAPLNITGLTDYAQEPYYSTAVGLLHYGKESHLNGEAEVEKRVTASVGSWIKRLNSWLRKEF

FtsA(A188V) = target: T3, FtsA(A188V) (E. coli, UniProt P0ABH0 1-420, A188V)
T3 sequence: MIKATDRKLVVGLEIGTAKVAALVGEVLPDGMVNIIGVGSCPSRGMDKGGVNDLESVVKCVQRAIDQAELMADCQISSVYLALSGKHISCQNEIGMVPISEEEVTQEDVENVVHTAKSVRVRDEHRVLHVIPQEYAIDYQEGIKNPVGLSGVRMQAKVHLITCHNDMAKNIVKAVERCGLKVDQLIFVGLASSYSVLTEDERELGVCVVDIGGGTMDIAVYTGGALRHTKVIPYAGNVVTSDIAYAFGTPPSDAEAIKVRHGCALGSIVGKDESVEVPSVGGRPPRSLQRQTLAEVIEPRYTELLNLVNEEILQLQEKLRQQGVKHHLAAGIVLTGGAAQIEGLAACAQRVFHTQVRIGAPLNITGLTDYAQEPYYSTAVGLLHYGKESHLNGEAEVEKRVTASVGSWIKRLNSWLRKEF

FtsA(Y375A) = target: T4, FtsA(Y375A) (E. coli, UniProt P0ABH0 1-420, Y375A)
T4 sequence: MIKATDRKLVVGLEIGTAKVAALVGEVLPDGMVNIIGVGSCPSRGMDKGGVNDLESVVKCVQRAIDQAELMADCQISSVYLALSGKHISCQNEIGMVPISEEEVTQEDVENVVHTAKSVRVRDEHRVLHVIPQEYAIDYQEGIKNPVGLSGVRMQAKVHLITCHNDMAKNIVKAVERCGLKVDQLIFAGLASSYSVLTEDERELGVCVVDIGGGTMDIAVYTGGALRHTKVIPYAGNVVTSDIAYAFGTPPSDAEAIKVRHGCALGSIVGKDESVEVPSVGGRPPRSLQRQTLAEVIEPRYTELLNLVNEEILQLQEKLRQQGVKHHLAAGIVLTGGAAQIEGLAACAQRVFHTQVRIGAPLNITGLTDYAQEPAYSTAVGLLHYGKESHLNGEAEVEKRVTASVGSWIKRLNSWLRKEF

binding result (FtsA(E14R)): binds | binding result (FtsA(S84L)): binds | binding result (FtsA(A188V)): binds | binding result (FtsA(Y375A)): binds
B1: FtsZ (natural protein)
chain: MFEPMELTNDAVIKVIGVGGGGGNAVEHMVRERIEGVEFFAVNTDAQALRKTAVGQTIQIGSGITKGLGAGANPEVGRNAADEDRDALRAALEGADMVFIAAGMGGGTGTGAAPVVAEVAKDLGILTVAVVTKPFNFEGKKRMAFAEQGITELSKHVDSLITIPNDKLLKVLGRGISLLDAFGAANDVLKGAVQGIAELITRPGLMNVDFADVRTVMSEMGYAMMGSGVASGEDRAEEAAEMAISSPLLEDIDLSGARGVLVNITAGFDLRLDEFETVGNTIRAFASDNATVVIGTSLDPDMNDELRVTVVATGIGMDKRPEITLVTNKQVQQPVMDRYQQHGMAPLTQEQKPVAKVVNDNAPQTAKEPDYLDIPAFLRKQAD
